Reference: article PMC9974451

Target: His-importin 7 (Xenopus laevis) (Xenopus laevis)
Experiment: differential scanning fluorimetry; His-tagged NTR at 0.5 μM in TPB with 2 mM DTT, His-NOSIP or Ubc9 titrated in 18 steps from 0.05 to 5 μM, 5x SYPRO Orange, 25 to 90 °C; Tm plotted against concentration, exponential fit

Kd: 447 nM
B1: His-NOSIP (natural protein)
chain: MTRHGKNCTAGAVYTYHEKKKDTAASGYGTQNIRLSRDAVKDFDCCCLSLQPCHDPVVTPDGYLYEREAILEYILHQKKEIARQMKAYEKQRGTRREEQKELQRAASQDHVRGFLEKESAIVSRPLNPFTAKALSGTSPDDVQPGPSVGPPSKDKDKVLPSFWIPSLTPEAKATKLEKPSRTVTCPMSGKPLRMSDLTPVHFTPLDSSVDRVGLITRSERYVCAVTRDSLSNATPCAVLRPSGAVVTLECVEKLIRKDMVDPVTGDKLTDRDIIVLQRGGTGFAGSGVKLQAEKSRPVMQA
